In patent US20260274955A1 (JANUX THERAPEUTICS, published 2026):

B1: Phage-300 (peptide)
peptide: YCEGHLAQYMWKCL
B2: Phage-396 (peptide)
peptide: YCEGHLAQYMNKCL
B3: Phage-402 (peptide)
peptide: YCDGHHIEYLAKCL
B4: Phage-397 (peptide)
peptide: YCDGHVQEYMQKCL
B5: Phage-356 (peptide)
peptide: YCDGHSAEYMEKCI
B6: Phage-408 (peptide)
peptide: YCDGHAEKYMQKCL
B7: Phage-409 (peptide)
peptide: YCEGHAIEYLAKCL
B8: Phage-360 (peptide)
peptide: YCDGHTEEYMDKCL
B9: Phage-418 (peptide)
peptide: YCDGHAEEYLWKCL
B10: Phage-395 (peptide)
peptide: YCDGHIGEYMVKCL
B11: Phage-398 (peptide)
peptide: YCHGHLQEYMAKCL
B12: Phage-414 (peptide)
peptide: YCEGHLQTYMAKCL
B13: Phage-405 (peptide)
peptide: YCDGHSLQYMDKCL
B14: Phage-413 (peptide)
peptide: YCDGHLEEYMVKCM
B15: Phage-390 (peptide)
peptide: YCDGHSPQYMQKCL
B16: Phage-420 (peptide)
peptide: YCDGHSGVYMWKCL
B17: Phage-406 (peptide)
peptide: YCDGHYPEYMSKCL
B18: Phage-394 (peptide)
peptide: YCDGHKPQYMEKCL
B19: Phage-358 (peptide)
peptide: YCEGHAPQYLNKCL
B20: Phage-393 (peptide)
peptide: YCDGHVEPYLSKCL
B21: Phage-361 (peptide)
peptide: YCDGHSSMYMAKCL
B22: Phage-416 (peptide)
peptide: YCDGHLPEYIFKCL
B23: Phage-363 (peptide)
peptide: YCEGHSAEFMTKCL
B24: Phage-357 (peptide)
peptide: YCDGHLPLYMHKCL
B25: Phage-415 (peptide)
peptide: YCAGHSQEHIQKCL
B26: Phage-400 (peptide)
peptide: YCDGHAPVYMAKCL
B27: Phage-359 (peptide)
peptide: YCDGHAREYMTKCL

Target: T1, anti-CD28 Fab (SEQ ID NOs: 202, 203)
T1 construct: biotinylated and captured on neutravidin coated plates in the phage ELISA
Experiment: phage binding ELISA; biotinylated Fab on neutravidin plate;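 further: clonal phage supernatants added to Fab wells pretreated with CD28 antigen or with blocking buffer only, bound phage read out via HRP-linked anti-M13 antibody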
Experimental: Clonal phage were harvested as crude supernatants and screened via standard ELISAs. […] Prior to the addition of clonal phage, wells were incubated with blocking buffer and CD28 antigen or blocking buffer alone. Without washing or aspirating, clonal phage supernatants were then added to the wells and incubated for a short time. Wells were then washed followed by detection of bound phage using a horse radish conjugated anti-M13 antibody.

T1 sequence (VH, as listed by the source, chain 1 of 2): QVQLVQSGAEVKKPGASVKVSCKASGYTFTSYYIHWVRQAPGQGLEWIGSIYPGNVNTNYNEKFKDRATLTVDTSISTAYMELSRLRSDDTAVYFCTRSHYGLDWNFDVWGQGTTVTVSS
T1 sequence (VL, as listed by the source, chain 2 of 2): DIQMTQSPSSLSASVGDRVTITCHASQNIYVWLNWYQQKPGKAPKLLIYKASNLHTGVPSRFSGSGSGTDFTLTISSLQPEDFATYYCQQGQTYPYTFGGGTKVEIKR

Binder	Anti-CD28 Fab (SEQ ID NOs: 202, 203) signal
B1	1.91
B2	1.76
B3	1.75
B4	1.76
B5	1.83
B6	1.74
B7	1.74
B8	1.82
B9	1.73
B10	1.76
B11	1.76
B12	1.73
B13	1.75
B14	1.73
B15	1.76
B16	1.73
B17	1.75
B18	1.76
B19	1.82
B20	1.76
B21	1.82
B22	1.73
B23	1.81
B24	1.82
B25	1.73
B26	1.75
B27	1.82
